The record followed here is patent US7387779B2, “Anti-angiogenic proteins and fragments and methods of use thereof” (Beth Israel Deaconess Medical Center, priority 1998, dated 2008).

For one assay, the system named is Caspase-3 in PC-3 cells. Kind of assay: Caspase-3 assay. The format is cell-based, human. As to the method: Tumstatin also altered cell morphology of C-PAE cells as monitored by phase contrast microscopy. After treating cells with 20 μg/ml of Tumstatin in the presence of 10% FCS for 24 hours on fibronectin-coated plates, the typical morphological features of apoptotic cells, membrane blebbing, cytoplasmic shrinkage, and chromatin condensation could be observed. […] Caspase-3 assay: Caspase-3 (CPP32) is an intracellular protease activated at the early stage of apoptosis, and initiates cellular breakdown by degrading structural and DNA repair proteins (Casciola-Rosen, L. et al., 1996, J. Exp. Med. 183:1957-64; Salvesen, G. S. et al., 1997, Cell 91:443-46). The protease activity of Caspase-3 was measured spectrophotometrically by detection of the chromophore (p-nitroanilide) cleaved from the labeled substrate (DEVD-pNA). C-PAE cells or PC-3 cells (0.5×10^6 per well) were plated onto a 6-well plate precoated with fibronectin (10 μg/ml) in DMEM supplemented with 10% FCS, and incubated overnight. The next day, the medium was replaced with DMEM containing 2% FCS and then incubated overnight at 37° C. Then cells were then stimulated with bFGF (3 ng/ml) in DMEM supplemented with 2% FCS, and also containing either TNF-α (80 ng/ml, positive control) or Tumstatin (10 μg/ml), and incubated for 24 hours. Controls received PBS buffer. […] Cells were counted and resuspended in cell lysis buffer (Clontech) at a concentration of 4×10^7 cells/ml. […] The absorbance was measured in a microplate reader (Bio-Rad, Hercules, Calif., USA) at 405 nm. […]
The results are shown in FIG. 53, which is a histogram showing caspase-3 activity (as measured at OD405, y-axis) of (x-axis) the control, control+DEVD-fmk, TNF-α, TNF-α+DEVD-fmk, Tumstatin-44-131 (1 μg/ml and 10 μg/ml), and Tumstatin-44-131 (10 μg/ml)+DEVD-fmk. […]
The protease activity of Caspase-3 in cells treated with T3 peptide was measured spectrophotometrically by detection of the chromophore (p-nitroanilide) cleaved from the labeled substrate (DEVD-pNA). […]

A further assay deals with C-PAE cells. Nature of the assay: Endothelial cell proliferation, 3H-thymidine incorporation. The format is cell-based, bovine. As to the method: C-PAE cells were grown to confluence in DMEM with 10% fetal calf serum (FCS) and kept contact inhibited for 48 hours. Control cells were 786-O (renal carcinoma) cells, PC-3 cells, HPEC cells, and A-498 (renal carcinoma) cells. Cells were harvested with trypsinization (Life Technologies/Gibco BRL, Gaithersburg, Md., USA) at 37° C. for five minutes. A suspension of 12,500 cells in DMEM with 1% FCS was added to each well of a 24-well plate coated with 10 μg/ml fibronectin. The cells were incubated for 24 hours at 37° C. with 5% CO2 and 95% humidity. […] Unstimulated controls received no bFGF. Cells were treated with concentrations of Arresten or endostatin ranging from 0.01 to 50 μg/ml. All wells received 1 μCurie of ^3H-thymidine at the time of treatment. After 24 hours, medium was removed and the wells were washed with PBS. Cells were extracted with 1N NaOH and added to a scintillation vial containing 4 ml of ScintiVerse II (Fisher Scientific, Pittsburgh, Pa., USA) solution. Thymidine incorporation was measured using a scintillation counter. The results are shown in FIGS. 3A and 3B, which are a pair of graphs showing incorporation of ^3H-thymidine into C-PAE cells treated with varying amounts of Arresten (FIG. 3A) or endostatin (FIG. 3B). Arresten appeared to inhibit thymidine incorporation in C-PAE as well as did endostatin. Behavior of control cells treated with Arresten and endostatin is also shown in FIG. 4A, 4B, 4C, and 4D, with Arresten having little effect on 786-O cells (FIG. 4A), PC-3 cells (FIG. 4B), or HPEC cells (FIG. 4C). Endostatin had little effect on A-498 cells (FIG. 4D). All groups in FIGS. 3 and 4 represent triplicate samples.
Bovine calf aortic endothelial (C-PAE) cells were grown to confluence in DMEM with 10% fetal calf serum (FCS) and kept contact inhibited for 48 hours. […] Radioactivity was extracted with 1N NaOH and added to a scintillation vial containing 4 ml of ScintiVerse II (Fisher Scientific, Pittsburgh, Pa., USA) solution. Thymidine incorporation was measured using a scintillation counter. […]
Background: Dividing cells build labelled thymidine or BrdU into new DNA.

For the next assay, the system named is WM-164 cells. Kind of assay: Attachment of melanoma cells to coated plates. It is filed as cell-based, human. The source says:
Tumstatin and all three of the deletion mutants […] attachment of WM-164 melanoma cells to the plates.

On to LQRFTTMPFLFCNVNDVCNF [T3], for which the “Caspase-3 activity in nonendothelial PC-3 cells” value (shortened to “Caspase-3 activity”) in the assay on Caspase-3 in PC-3 cells is “no difference”.

B1: Canstatin: NC1 domain of the α2 chain of Type IV collagen (SEQ ID NO:6) (protein, listed as Homo sapiens)
chain: VSIGYLLVKHSQTDQEPMCPVGMNKLWSGYSLLYFEGQEKAHNQDLGLAGSCLARFSTMPFLYCNPGDVCYYASRNDKSYWLSTTAPLPMMPVAEDEIKPYISRCSVCEAPAIAIAVHSQDVSIPHCPAGWRSLWIGYSFLMHTAAGDEGGGQSLVSPGSCLEDFRATPFIECNGGRGTCHYYANKYSFWLTTIPEQSFQGSPSADTLKAGLIRTHISRCQVCMKNL
As to B1, in the assay with C-PAE cells (10% serum-stimulated), the “ED50, inhibition of proliferation” value is recorded as “approximately 0.5 μg/ml”.

B2: Tum-1: residues 54 to 244 of Tumstatin, lacking the N-terminal 53 amino acids (SEQ ID NO:22) (protein)
chain: QRAHGQDLGTLGSCLQRFTTMPFLFCNVNDVCNFASRNDYSYWLSTPALMPMNMAPITGRALEPYISRCTVCEGPAIAIAVHSQTTDIPPCPHGWISLWKGFSFIMFTSAGSEGTGQALASPGSCLEEFRASPFLECHGRGTCNYYSNSYSFWLASLNPERMFRKPIPSTVKAGELEKIISRCQVCMKKRH
modifications: Tum-1 (Tumstatin N-53) (amino acids 54-244 of SEQ ID NO10)
For B2, the “binding of WM-164 cells to coated plates” value in the assay on WM-164 cells is on record as “bind to WM-164 cells”.

B3: Tum-2: residues 1 to 132 of Tumstatin (SEQ ID NO:23) (protein)
chain: GLKGKRGDSGSPATWTTRGFVFTRHSQTTAIPSCPEGTVPLYSGFSFLFVQGNQRAHGQDLGTLGSCLQRFTTMPFLFCNVNDVCNFASRNDYSYWLSTPALMPMNMAPITGRALEPYISRCTVCEGPAIAI
modifications: Tum-2 (amino acids 1-132 of SEQ ID NO10)
Regarding B3, the “binding of WM-164 cells to coated plates” value in the assay with WM-164 cells is recorded as “bind to WM-164 cells”.

B4: Tum-4: residues 181 to 244 of Tumstatin (SEQ ID NO:25) (protein)
chain: EFRASPFLECHGRGTCNYYSNSYSFWLASLNPERMFRKPIPSTVKAGELEKIISRCQVCMKKRH
modifications: Tum-4 (amino acids 181-244 of SEQ ID NO10)
With B4, the “binding of WM-164 cells to coated plates” value in the assay on WM-164 cells was “bind to WM-164 cells”.

B5: Tumstatin: NC1 domain of the α3 chain of type IV collagen, residues 1-244 (SEQ ID NO:10) (protein, listed as Homo sapiens)
chain: GLKGKRGDSGSPATWTTRGFVFTRHSQTTAIPSCPEGTVPLYSGFSFLFVQGNQRAHGQDLGTLGSCLQRFTTMPFLFCNVNDVCNFASRNDYSYWLSTPALMPMNMAPITGRALEPYISRCTVCEGPAIAIAVHSQTTDIPPCPHGWISLWKGFSFIMFTSAGSEGTGQALASPGSCLEEFRASPFLECHGRGTCNYYSNSYSFWLASLNPERMFRKPIPSTVKAGELEKIISRCQVCMKKRH
Turning to B5, the “ED50, inhibition of 3H-thymidine incorporation” value with C-PAE cells (20% FCS stimulated) is listed as “approximately 0.01 mg/ml”. Besides, the “binding of WM-164 cells to coated plates” value in the assay with WM-164 cells was “bind to WM-164 cells”. The “Caspase-3 activity” value with Caspase-3 in PC-3 cells is listed as “no difference”.

B6: Tumstatin-44-131: residues 44 to 131 of full-length Tumstatin (SEQ ID NO:33) (protein)
chain: FSFLFVQGNQRAHGQDLGTLGSCLQRFTTMPFLFCNVNDVCNFASRNDYSYWLSTPALMPMNMAPITGRALEPYISRCTVCEGPAIAI
modifications: Tumstatin-45-132 (amino acids 45-132 of SEQ ID NO10)
Take B6: in the assay with Caspase-3 in PC-3 cells, the “Caspase-3 activity” value is “not observed”.

B7: endostatin: tumor associated angiogenesis inhibitor used as comparator (protein, UniProt P39060 1572-1754, looked up)
Endostatin: HSHRDFQPVLHLVALNSPLSGGMRGIRGADFQCFQQARAVGLAGTFRAFLSSRLQDLYSIVRRADRAAVPIVNLKDELLFPSWEALFSGSEGPLKPGARIFSFDGKDVLRHPTWPQKSVWHGSDPNGRRLTESYCETWRTEAPSATGQASSLLGGRLLGQSAASCHHAYIVLCIENSFMTASK
modifications: Endostatin
In the case of B7, the “ED50, inhibition of proliferation” value with C-PAE cells (bFGF-stimulated, E. Coli-produced Arresten) stood at 0.75 µg/mL.
